The subject of test [1] is IL-2 production. In words: IL-2 production by T cells expressing chimeric molecules after antibody cross-linking. The settings on record: for IL-2 production, fold less than the wild-type CD8/ζ: maximal stimulation with anti-CD8-α antibody, 24 hours, FIG. 4. Format: cell-based. The procedure:
Microcultures of 0.25 ml were prepared containing 10^5 responding T cells expressing CD8/ζ, CD8/ζD67-126, CD8/ζY153E, CD25/ζ or CD25/ζY153E. For stimulation, microtiter wells were precoated with 50 μl of a phosphate-buffered saline solution containing varying concentrations of purified anti-CD8-α antibody (19/178) or anti-hCD25 antibody (B1.49.9) to cross-link the CD8/ζ, CD8/ζD67-126 and CD8/ζY153E, or CD25/ζ and CD25/ζY153E, respectively, on the surface of the T cells. Control wells were coated with an irrelevant antibody. After 2 hours at room temperature and 1 hr at 4° C., the wells were washed three times with fetal calf serum-containing tissue culture medium. […]. After 24 hours in culture, the supernatants were harvested and assayed for IL-2 content using methods generally described in Gillis et al. (J. Immunol. 120:2027-2032, 1978). A concentration of 1 U/ml of IL-2 was the minimum detectable in this assay.

In test [2] the test system is TCR-ζ. In words: Cell-free association of TCR-ζ with the actin cytoskeleton (detergent soluble lysate, newly polymerized pellet). Format: biochemical, murine. As to the method:
Freshly isolated murine thymocytes or lymph node T cells, or CD25/ζ-expressing T cell hybridomas, were washed 3 times in BSS and incubated in the presence or absence of cytochalasin D for 1.5 hrs at 4° C., solubilized with 0.5% NP-40 in a Tris buffered saline solution (TBS; 150 mM NaCl, 10 mM Tris, pH 7.3) containing protease and phosphatase inhibitors (0.2 mM VO3, 10 mM NaF, 1 mM PMSF, and 1 mg/ml each of Aprotinin, Leupeptin, and α-l-antitrypsin) and centrifuged at 10,000 rpm for 10 min to pellet the insoluble material. […] To increase actin polymerization, the Mg^2+ concentration was increased to 2 mM. […] Immunoprecipitation of the detergent soluble fraction with anti-TCR-ζ antibody was then performed as described in Example 4. The pellet and the anti-TCR-ζ immunoprecipitate were resolved by SDS-PAGE gel electrophoresis and immunoblotted with anti-TCR-ζ antibody.

Test [3] concerns BW 5147 α−β− thymoma transfectants. In words: Association of chimeric or truncated TCR-ζ molecules with the cytoskeleton upon receptor ligation (immunoblot of detergent insoluble pellet). The format is cell-based. The settings on record: substitution of the distal COOH-terminal tyrosine of the third ITAM. Background: Immunoblotting shows a protein as a band on a membrane.

Consider “CD8/ζD67-126: truncated CD8/ζ chimera expressing only intact ζc domain (SEQ ID NO:29) (RAKFSRSAETAANLQGTKGERRRGKGHDGLYQGLSTATKDTYDALHMQTLAPR)”, for which, in test [1], the “IL-2 production, fold less than the wild-type CD8/ζ” value is recorded as 40 fold.

`[Mg+2]` [Mg^2+, reference compound]: in test [2] (2 mM Mg2+ alone), the “TCR-ζ binding with actin polymerization induced in vitro” value is recorded as “without additional TCR-ζ binding”.

B1: CD25/ζY153F: CD25/ζ with the tyrosine at residue 153 substituted for a phenylalanine (SEQ ID NO:31) (protein)
chain: RAKFSRSAETAANLQDPNQLYNELNLGRREEYDVLEKKRARDPEMGGKQQRRRNPQEGVYNALQKDKMAEAYSEIGTKGERRRGKGHDGLYQGLSTATKDTFDALHMQTLAPR
B1: the “Tyrosine phosphorylation of a set of proteins induced by receptor ligation, compared with the intact CD25/ζ chimera” value in test [1] (receptor ligation) is “qualitatively and quantitatively indistinguishable”. In addition, the “Effect of removal of the distal tyrosine (Y153F) on cytoskeletal association” value in test [3] is “almost completely abrogated cytoskeletal association”.

B2: CD8/ζY153E: substituted CD8/ζ chimera (SEQ ID NO:30) (protein)
chain: RAKFSRSAETAANLQDPNQLYNELNLGRREEYDVLEKKRARDPEMGGKQQRRRNPQEGVYNALQKDKMAEAYSEIGTKGERRRGKGHDGLYQGLSTATKDTEDALHMQTLAPR
Turning to B2, the “IL-2 production, fold less than the wild-type CD8/ζ” value in test [1] is given as 100 fold.

B3: CD25/ζ: chimera of extracellular and transmembrane regions of CD25 and the cytoplasmic domain of TCR-ζ (protein)
chain: ELCDDDPPEIPHATFKAMAYKEGTMLNCECKRGFRRIKSGSLYMLCTGNSSHSSWDNQCQCTSSATRNTTKQVTPQPEEQKERKTTEMQSPMQPVDQASLPGHCREPPPWENEATERIYHFVVGQMVYYQCVQGYRALHRGPAESVCKMTHGKTRWTQPQLICTGEMETSQFPGEEKPQASPEGRPESETSCLVTTTDFQIQTEMAATMETSIFTTEYQVAVAGCVFLLISVLLLSGLRAKFSRSAETAANLQDPNQLYNELNLGRREEYDVLEKKRARDPEMGGKQQRRRNPQEGVYNALQKDKMAEAYSEIGTKGERRRGKGHDGLYQGLSTATKDTYDALHMQTLAPR
Turning to B3, the “Co-sedimentation with the actin cytoskeleton in vitro” value in test [2] (in vitro activating (MgATP) condition, depleted from the pellet under actin depolymerizing conditions) is “co-sediments with the actin cytoskeleton”.

Source of the values: patent US6500430B1, “Product and process to regulate actin polymerization in T lymphocytes” (National Jewish Medical and Research Center, priority 1995, dated 2002).
